From paper PMC5353646, “Allosteric modulation of peroxisomal membrane protein recognition by farnesylation of the peroxisomal import receptor PEX19” (Nature Communications, 2017)
Where a chain is given by its changes, count along the chain named. Numbers in names are those of the source. Entries after “also recorded” stand apart in the source; their conditions may differ.

Experiments:
farnesylated PEX19 CTD = target: T1, farnesylated PEX19 CTD (Homo sapiens, UniProt P40855); assay: NMR titration of farnesylated PEX19 CTD with PMP peptides; format: binding; conditions: 1H,15N HSQC, 298 K, ALDP at 5 and 10 molar ratio with 100 μM PEX19 CTD, PEX13 at 1:1.5 and 1:0.5 with 50 μM
T1 construct: we studied the human PEX19 CTD (residues 161–299) that includes the native C-terminus; hexahistidine (TEV-cleavable) (cleaved yes); made in house; host or cells: Escherichia coli BL21 (DE3); farnesylated in vitro with recombinant S. cerevisiae farnesyl transferase
T1 sequence (P40855 161-299): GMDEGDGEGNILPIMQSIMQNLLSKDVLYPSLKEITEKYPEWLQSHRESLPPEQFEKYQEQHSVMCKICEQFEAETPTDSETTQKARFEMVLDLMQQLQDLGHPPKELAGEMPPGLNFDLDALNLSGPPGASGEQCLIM

[1] = Hydrophobic interaction chromatography; format: physicochemical; conditions: Butyl Sepharose FF, linear decreasing (NH4)2SO4 650–0 mM, 20 ml, 280 nm; for elution volume after start of the gradient: 20 mM potassium phosphate, pH 6.5, 50 mM NaCl, 500 μg protein; for ΔV, difference in elution volume between farnesylated and non-farnesylated protein: pH 6.5
Description: Purified PEX19 CTD and variants were adjusted to a buffer containing 650 mM (NH4)2SO4 and 500 μg protein was subjected to equilibrated Butyl Sepharose FF column (20 mM potassium phosphate, pH 6.5, 50 mM NaCl and 650 mM (NH4)2SO4). After washing, bound protein was eluted with linear decreasing (NH4)2SO4 concentrations (650–0 mM (NH4)2SO4, 20 ml). Eluted proteins were detected using 280 nm absorption. The binding strength is indicated by the elution volume and correlates with protein hydrophobicity.

[2] = 15N NMR relaxation, tumbling correlation time; format: physicochemical; conditions: for tumbling correlation time τc: 15N R2/R1 ratio, 750 MHz, 298 K, PEX19 CTD residues 161–299; for oligomeric state in solution: from τc, 15N NMR relaxation
Description: NMR spectra were acquired at 298 K on a Bruker Avance III 600-MHz spectrometer with a TCI cryo-probe head, an Avance III 750-MHz spectrometer with a TXI probe head, or an Avance 900 instrument with a TXI cryo-probe head. Spectra were processed using NMRPipe[31] and analysed with Sparky[32]. Backbone assignment was done semi-automatically with MARS[33]. Backbone and side chain assignments were obtained from HNCA, HNCACB, CBCA(CO)NH, H(C)CH-TOCSY and (H)CCH-TOCSY spectra. ^13C- and ^15N- edited NOESY spectra with a mixing time of 70 ms were recorded to derive distance restraints. For NOEs between PEX19 and the farnesyl group, isotope-edited and filtered 3D NOESY spectra (70 and 100 ms mixing times) were acquired using specific isotope-labelled samples. ^15N R1, R2 relaxation rates and {^1H}-^15N heteronuclear NOEs were recorded at an Avance III 750 MHz spectrometer. Local correlation times were derived from the ^15N R2/R1 ratio[35]. For determination of solvent paramagnetic relaxation enhancement rates, gadolinium diethylene-triamine-penta-acetic-acid bismethylamide (Gd(DTPA-BMA)) was titrated to the protein samples[36][37][38]. Saturation recovery ^1H,^15N HSQC experiments with recovery times from 0.01 to 3 s were recorded at concentrations of 0, 1, 2, 3, 5, 7 and 10 mM Gd(DTPA-BMA). Peak intensities were fitted to an exponential recovery function according to equation I(τ)=I0−Aexp(−R1τ), where τ is the recovery delay, I(τ) is the peak intensity measured for the recovery delay τ, I0 is the maximum peak intensity, R1 is the longitudinal proton relaxation rate and A is the signal amplitude. To obtain the sPRE value, the proton R1 rates were collected for all measured concentrations of Gd(DTPA-BMA) cpara and a linear regression for the equation R1 (cpara)=msPRE cpara+ [drawing 1] was performed, where R1 (cpara) is the proton R1 measured at the concentration cpara of the paramagnetic compound, the slope msPRE corresponds to the sPRE and [drawing 2] is the fitted proton R1 in the absence of the paramagnetic compound[36]. For NMR titrations an ALDP peptide (sequence: AAKAGMNRVFLQRLL, residues 62–76 of human ALDP) was dissolved to a concentration of 5 mM in NMR buffer and added to ^15N-labelled PEX19 CTD with and without farnesylation in the same buffer up to a protein-peptide molar ratio of 1:10.

[3] = test system: PEX19-deficient human fibroblasts (ΔPEX19 T); assay: Functional complementation of PEX19-deficient fibroblasts (peroxisomal protein import); format: cell-based; conditions: full-length PEX19 variants, 72 h after transfection
Description: A bicistronic expression plasmid coding for eGFP-PTS1 and non-tagged PEX14 (pMF1220)[43] was kindly provided by Marc Fransen (Leuven, Belgium). pIRES2-HsPEX19-eGFP-PTS1 was constructed by replacing the open reading frame of PEX14 (BglII/SalI) with a DNA-cassette encoding the full-length open reading frame of human PEX19 as derived from BamHI/SalI digestion of pAH05 (ref. [44]). Single point mutations were introduced into the PEX19 sequence by Quickchange XL Site-directed Mutagenesis kit (Stratagene) using primer pairs (Supplementary Table 1). The bicistronic expression vectors coding for PEX19 variants and eGFP-PTS1 were transfected into the human cell-line ΔPEX19 T which was derived from PEX19-deficient Zellweger patient fibroblasts. ΔPEX19 T cells, characterized by a defect in peroxisome biogenesis were routinely authenticated by functional complementation assays as described below and checked for mycoplasma contamination using Venor GeM Advance Mycoplasm Detection Kit (Minerva Biolabs). The efficiency of transfection according to the Amaxa Cell Line Nucleofector Kit R protocol (Lonza Cologne AG) was always around 90%. After 72 h of transfection, cells were subjected to fluorescence and immunofluorescence microscopy using polyclonal antiserum against human PEX14 (ref. [45]) (1:400 diluted) or monoclonal antibodies against human PEX19 (BD Biosciences, MA5-17266 Thermo Scientific; 1:400 diluted). Statistical analysis was carried out from three independent transfections of each pIRES-PEX19-eGFP-PTS1 expression plasmid. Based on the appearance of eGFP-PTS1 fluorescence pattern, about 100 cells of each experiment were visually categorized into three classes, (i) full complementation of peroxisomal import as visualized by punctuate staining pattern, (ii) partial complementation as indicated by diffuse cytosolic staining with few dots, (iii) no complementation resulting in only cytosolic staining. All micrographs were recorded on a Zeiss Axioplan 2 microscope with a Zeiss Plan-Apochromat × 63/1.4 oil objective and an Axiocam MR digital camera, and were processed with AxioVision 4.6 software (Zeiss, Jena, Germany). The steady-state level of PEX19 expression was assessed by immunoblot analysis, using monoclonal mouse antibodies against HsPEX19 (BD Biosciences, MA5-17266; 1:1,000 diluted) (Supplementary Fig. 9).

Question: For “HFTKVFSAFALVRTIR [PEX13 peptide, peptide derived from the PMP PEX13]”, which “NMR chemical shift perturbations / line broadening of farnesylated PEX19 CTD” value (farnesylated PEX19 CTD) is on record?
Answer: severe line broadening

Question: What about the “NMR chemical shift perturbations / line broadening of farnesylated PEX19 CTD” value (farnesylated PEX19 CTD; listed as PEX13) of the same molecule?
Answer: even stronger NMR chemical shift perturbation changes to helix α1, and significant line broadening in the lid region

B1: PEX19 CTD: human PEX19 C-terminal domain (residues 161–299) (protein)
chain: T1 sequence (P40855 161-299)
modifications: left off: His6, end not stated, cleaved
Question: Which “elution volume after start of the gradient” value (“elution volume after start” below) [1] does the source give for B1 here?
Answer: 9.66 mL

Question: And the “ΔV, difference in elution volume between farnesylated and non-farnesylated protein” value [1]?
Answer: 5.08 mL

Question: What about the “tumbling correlation time τc” value [2] of the same molecule?
Answer: 11.4 ns

Question: What about the “oligomeric state in solution” value [2] of the same molecule?
Answer: monomeric in solution

B2: PEX19 CTD farnesylated: human PEX19 CTD (residues 161–299) farnesylated in vitro (protein)
chain: T1 sequence (P40855 161-299)
modifications: farnesyl group on Cys296 (CaaX box); left off: His6, end not stated, cleaved
notes: human PEX19 CTD (residues 161–299) farnesylated in vitro
Question: Which “elution volume after start” value [1] does the source give for B2 here?
Answer: 14.74 mL

Question: What about the “tumbling correlation time τc” value [2] of the same molecule?
Answer: 10.5 ns

Question: And the “oligomeric state in solution” value [2]?
Answer: monomeric in solution

B3: M179R: PEX19 CTD variant M179R (helix α1) (protein)
chain: T1 sequence (P40855 161-299) with M19R
modifications: left off: His6, end not stated, cleaved
Question: Which “elution volume after start” value [1] does the source give for B3 here?
Answer: 4.60 mL

Question: And the “functional complementation (in words)” value [3]?
Answer: not capable of rescuing the ΔPEX19 phenotype; also recorded: cannot restore peroxisomal biogenesis

B4: M179R farn: farnesylated PEX19 CTD variant M179R (protein, UniProt P40855 161-299, looked up, variant M179R)
chain: T1 sequence (P40855 161-299) with M19R
modifications: C-terminal domain farnesylated
Question: Which “elution volume after start” value [1] does the source give for B4 here?
Answer: 11.26 mL

B5: I195K: PEX19 CTD variant I195K (helix α2) (protein)
chain: T1 sequence (P40855 161-299) with I35K
modifications: farnesyl group on Cys296 (CaaX box); left off: His6, end not stated, cleaved
Question: For B5, which “elution volume after start” value [1] is on record?
Answer: 8.40 mL

Question: And the “ΔV, difference in elution volume between farnesylated and non-farnesylated protein” value [1]?
Answer: 8.01 mL

B6: I195K farn: farnesylated PEX19 CTD variant I195K (protein, UniProt P40855 161-299, looked up, variant I195K)
chain: T1 sequence (P40855 161-299) with I35K
modifications: C-terminal domain farnesylated
Question: With B6 as the molecule, how does the “elution volume after start” value [1] read?
Answer: 16.41 mL

B7: M255R farn: farnesylated PEX19 CTD variant M255R (protein, UniProt P40855 161-299, looked up, variant M255R)
chain: T1 sequence (P40855 161-299) with M95R
modifications: C-terminal domain farnesylated
Question: With B7 as the molecule, how does the “elution volume after start” value [1] read?
Answer: 17.9 mL

B8: PEX19 I195K: full-length PEX19 variant I195K (protein, UniProt P40855 1-299, looked up, variant I195K)
chain: MAAAEEGCSVGAEADRELEELLESALDDFDKAKPSPAPPSTTTAPDASGPQKRSPGDTAKDALFASQEKFFQELFDSELASQATAEFEKAMKELAEEEPHLVEQFQKLSEAAGRVGSDMTSQQEFTSCLKETLSGLAKNATDLQNSSMSEEELTKAMEGLGMDEGDGEGNILPIMQSIMQNLLSKDVLYPSLKEKTEKYPEWLQSHRESLPPEQFEKYQEQHSVMCKICEQFEAETPTDSETTQKARFEMVLDLMQQLQDLGHPPKELAGEMPPGLNFDLDALNLSGPPGASGEQCLIM
modifications: full-length
Question: For B8, which “functional complementation (in words)” value [3] is on record?
Answer: impaired although less strongly

Question: What about the “cells showing restored peroxisomal protein transport (functional complementation)” value ([3]; at least 100 cells in three independent transfections, series of Fig. 3c) of the same molecule?
Answer: 23%

B9: PEX19 P273F/P274F: full-length PEX19 with two lid prolines replaced by phenylalanine (protein, UniProt P40855 1-299, looked up, variant P273F P274F)
chain: B8 chain with K195I, P273F, P274F
modifications: full-length
notes: full-length PEX19 with two lid prolines replaced by phenylalanine
Question: Which “cells displaying import-competent peroxisomes (complementation rate)” value ([3]; 100 cells each of three independent transfections, series of Fig. 5d) does the source give for B9 here?
Answer: 20%
